According to article doi:10.1101/2024.05.31.596867:

Biological target: de-glycosylated KEN SVMP PIII (PNGase F treated under native conditions) (Bitis arietans (puff adder, Kenya))
Assay: gelatin zymogram

## de-glycosylated KEN SVMP PIII (PNGase F treated under native conditions) (enzyme)
  stoichiometry N: 2
